Assay results taken from the DeepSol protein solubility set.

assay: soluble on expression in E. coli; label from the status in PepcDB or PDB records

Soluble on expression in E. coli, not soluble:
MEKSSSNFIQNGKRDHGGKLRQYNYKLEEAEYRYFTEERLFYRRRNPVEKIAQRIPKPQIEGTFTWSDELRCNYDGNTQFLPVEALEGCLPLEKLNQHLKPGFRLEVVVRPSLDPSITTKSPEIRWFGEVTAVCGFYVAIKFVGELNRRPCWFHMLSEDIFDIGSGLKQDPAMKWLQYRPLSLLKPMQCPKFWRRGSTPAPPVPRPTEEILDEFQAELHENRISEPKIFDQLRHLAHRPSRFRLNQRVELLNYLEPTEIRVARILRILGRRLMVMVTAQDYPEDLPSVEAKDRQVQHENVEFWVDESSFFLFPVGFAMINGLRTKATEGYLEHSRRIAEGSGTEKLNLLKVGQKFELLDPLSDLRQSFCVATIRKICKTPGFLIISPDETESDDESFPIHIDNHFMHPVGYAEKFGIKLDRLAGTEPGKFKWEGYLKEKQAEKIPDEMLRPLPSKERRHMFEFGRVLEAVGQNETYWISPASVEEVHGRTVLIEFQGWDSEFSELYDMDSHDLLPAGWCEFFNFKLRHPVLPVNDPNAENGEYD
MLDFAAIDFETANAERTSVCSVGIIVVRGGQIVHRYYSLIRPEPDYYNYHNTRVHGLTAADTESARIFPDVWAEVEPLIAGLPLVAHNKPFDEGCLKAVFRMYRMDYPDYPFFCTLQAARRQLRHLSDHRLPTVAQCCGYTLAQHHQALADAEACAAIALKLL
MGSDKIHHHHHHMRELRYNPLTGQWIMVSAVRKNRPWRPRNFCPFCPGSEETGYGWEVLLLPNRFPMLSFDAPKPKNEDFYKKARAMGQCSVIVETPKHELRDLDELPREQMVKIVRMWIKITETLKENRNVAYLAIFRNKGEEIGVSLKHPHGQLYALPYIPLKVRLKIENSRRYYKRTGECIFCRIIKEEEKNGERTIYENDNFIVFMPFFASWPFEVHIYPKRHIQYLTDLKVNEIEDLAEVIQVTTATLNAVLDRQMPYAMMIFQAPFKGNYPFYHLHIEFYPILRDNGKVKYTAGIELGTWEFTYDGIPEENARKLKEACKKVSQRMSLKGKCI
MEDHKPRPCQPRPWLKEQKCPTGFWCHEGQSEHSFYCCPSSRKFANRCHLPPAVGYGKQRMRRFYFDWKTDACHELQYSGIGGNENIFMDYEQCERVCRGAGEPPILLPSNMKVLPKETTKDFKKMEKPEMEKKMVYPKEVAAPVSLQPPSLRTTKPADVHESFYTVSPQTSSVPHPTTLSTTHSKQKPTTTEAEIPEVFDPNPCSLSPDKGFPGSVTVNMWYYDPTSTTCSPFMYLGKGGNSNRFETSEECLETCGIGKPTRKSCELPPAIGNGPFNIPRYYFDRVTKKCERFFYSGRDGNDNRFYKKNKCERLCLRKKPKKKENIYEFTTTPSTPSVIYESTPLRIIQNLVPNYVTPTPTQSRITVEPWIERFTEKSSIYEYSTTPHPTLIYEPHGETLPTLNPPTTTTPSIVDHVFSSLMNTQQQKLVEFVHVPTDQKTTGETPRKFSSHETIPFGQVEQQPIPMNPFGSAKPTVNKFGMKVEPYQTTDYMLPPGYPSSSIYLPQPAYPEVKPNSSVILSSTQSQNNTSPQTIPASASVTNSATSTVVDTSSQFQIPYVSSPASATSNIFVGPIPPPSNSGSSSQAPDSSQSATNSSNSGSGESKIPNVGPIAPPSQLSQVGVFVTGSTSTSPVVSINFIKTENSVQQPTHYIVPSQSSPPPDPYVISNPIPTLSPTAGTPSFNIYPYPSLPPPTTTISPLPTLLPPNISYVTSPPDNNDSPCSRSIYGDATIMCENRQEICPMGTFCQIGQGQSICCPIMDEPPCEQAIEEGVGNVLLRRWYFDPATRLCQPFYYKGFKGNQNNFQSFDSCSRACGATNVCSGGSPQMSVHTHLLSCNFESDCPYSHDCIQSTPHNLCCPKTSHLVPESIPAPPFEPVQMPIPAPPAQVSQPQEQSSNMVIDFVPATHASNNLCGQPIDVGFGVLSEHRWAYSAGQCTSFLYSGHGGNMNNFLTRNDCMKTCQSPMPPPSSQCSQPAASGQGDQYLSRYFFSPEYRQCLHFIYSGEGGNQNNFDSLTDCLETCVANGIKFSSLANSPMSAVPPPPPTLMPSPPVTSSPFTFVPRNMCPQGDPLITVDGTPIQCDPSKAAKCPGDHVCTPRGNEAYCCPSPMNFCLQSRPPISVCSGPDFEPVREIRFTYDPLADRCVRFSFQNCRGAAFSPTGSLNNFVSNSQCNRLCCNQGYNLVYKRRLLMAMNDDPIVEDD
